Measured values as given in publication PMC10339064.

Biological target: Peroxisome proliferator-activated receptor alpha (PPARα), wild type, FLAG-tagged (human) (UniProt Q07869)
Chain of UniProt Q07869 (Q07869 whole entry): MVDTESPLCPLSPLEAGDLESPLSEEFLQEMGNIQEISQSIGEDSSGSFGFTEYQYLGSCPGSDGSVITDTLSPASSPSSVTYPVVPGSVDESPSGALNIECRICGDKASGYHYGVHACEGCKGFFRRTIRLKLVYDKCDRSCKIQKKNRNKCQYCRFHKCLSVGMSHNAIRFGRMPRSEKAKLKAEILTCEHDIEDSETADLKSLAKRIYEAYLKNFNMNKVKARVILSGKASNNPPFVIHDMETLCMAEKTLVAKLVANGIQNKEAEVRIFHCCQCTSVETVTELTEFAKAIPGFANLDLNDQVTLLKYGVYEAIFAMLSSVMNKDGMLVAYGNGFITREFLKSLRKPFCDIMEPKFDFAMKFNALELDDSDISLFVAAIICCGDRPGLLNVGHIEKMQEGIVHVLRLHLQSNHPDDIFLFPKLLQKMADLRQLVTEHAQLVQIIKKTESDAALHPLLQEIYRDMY

PPRE-driven luciferase reporter in HEK293 cells activated by ectopic PPARα; reduction by expression of CtBP2: 53%
Substance: C-terminal binding protein 2 (CtBP2), wild type, HA-tagged (from UniProt P56545 1-445) (natural protein)
